Changes are numbered by the printed parent chain. Names and notes keep the numbering of the source.
B1: ActRIIB-Fc (E28W) (Fc fusion)
chain: ETRWCIYYNANWELERTNQSGLERCEGEQDKRLHCYASWRNSSGTIELVKKGCWLDDFNCYDRQECVATEENPQVYFCCCEGNFCNERFTHLPEAGGPEVTYEPPPTAPTGGGGSVECPPCPAPPVAGPSVFLFPPKPKDTLMISRTPEVTCVVVDVSHEDPEVQFNWYVDGVEVHNAKTKPREEQFNSTFRVVSVLTVVHQDWLNGKEYKCKVSNKGLPAPIEKTISKTKGQPREPQVYTLPPSREEMTKNQVSLTCLVKGFYPSDIAVEWESNGQPENNYKTTPPMLDSDGSFFLYSKLTVDKSRWQQGNVFSCSVMHEALHNHYTQKSLSLSPGK
notes: also called ActRIIB-IgG2Fc (E28W); ActRIIB-IgG Fc (E28W)
B2: svActRIIB-Fc (E28W, S44T) (Fc fusion)
chain: B1 chain with S20T
notes: also called svActRIIB-IgG2Fc (E28W, S44T); svActRIIB-IgG Fc (E28W, S44T)

Assays:
[1] = biological target: GDF-11 (Homo sapiens (Human)) (UniProt O95390); experiment: cell-based or functional assay
myostatin [2] = biological target: T1, myostatin (human, UniProt O14793 267-375); experiment: KinExA solution equilibrium binding, ligand-coated beads, room temperature
T1 construct: also called GDF-8; growth/differentiation factor 8
T1 sequence: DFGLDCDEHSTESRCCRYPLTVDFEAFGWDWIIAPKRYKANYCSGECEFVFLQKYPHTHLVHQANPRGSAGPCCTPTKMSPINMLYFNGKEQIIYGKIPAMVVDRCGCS
Description: (§1) Solution-based equilibrium-binding assays using KinExA™ technology (Sapidyne Instruments, Inc.) were used to determine the dissociation equilibrium (KD) of ligand binding to ActRIIB-Fc polypeptides. UltraLink Biosupport beads (Pierce) was pre-coated with about 100 μg/m1 each of myostatin, GDF-11, and activin A overnight, and then blocked with BSA. 1 pM and 3 pM of ActRIIB-Fc (E28W) (SEQ ID NO: 21) and svActRIIB-Fc (E28W, S44T) (SEQ ID NO: 10) samples were incubated with various concentrations (0.7 fM to 160 pM) of myostatin, activin A, and GDF-11 respectively in sample buffer at room temperature for 8 hours before being run through the ligand-coated beads. The amount of the bead-bound soluble receptor was quantified by fluorescent (Cy5) labeled goat anti-human-Fc antibody at 1 mg/ml in superblock. The binding signal is proportional to the concentration of free soluble receptor at equilibrium with a given myostatin, activin A, or GDF-11 concentration. KD was obtained from the nonlinear regression of the competition curves using a dual-curve one-site homogeneous binding model provided in the KinEx A™ software (Sapidyne Instruments, Inc.).

activin A [3] = biological target: T2, activin A (human, UniProt P08476 311-426); experiment: as above
T2 construct: also called homodimer of the polypeptide chains betaA; INHBA product
T2 sequence: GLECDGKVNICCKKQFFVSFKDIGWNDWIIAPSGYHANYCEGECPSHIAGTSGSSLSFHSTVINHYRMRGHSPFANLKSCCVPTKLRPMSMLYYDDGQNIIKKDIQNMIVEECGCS
Description: as §1

myostatin [4] = biological target: T1, myostatin; experiment: cell-based or functional assay
activin A [5] = biological target: T2, activin A; experiment: cell-based or functional assay
[6] = biological target: GDF-11 (Homo sapiens (Human)) (UniProt O95390); experiment: KinExA solution equilibrium binding, ligand-coated beads, room temperature

Row | Binder | IC50, luciferase activity in C2C12/pMARE reporter cells, 4 nM ligand [1] [nM] | Kd (myostatin [2]) [pM] | Kd (activin A [3]) [pM] | IC50, luciferase activity in C2C12/pMARE reporter cells, 4 nM ligand (myostatin [4]) [nM] | IC50, luciferase activity in C2C12/pMARE reporter cells, 4 nM ligand (activin A [5]) [nM] | Kd [6] [pM]
1 | B1 | 2.4 | 0.1 | 0.2 | 0.95 | 3.2 | 0.1
2 | B2 | 2.4 | 0.1 | 0.1 | 1.07 | 3.6 | 0.1

— patent publication US20160333418A1 (SANTA MARIA BIOTHERAPEUTICS, published 2016)
